Earlier results as cited in paper PMC6425487.

Biological target: Cterm (position 6, KEKGLF-----)
Test: NMR
Details: 150 mM; free peptide in solution

## KEKGLF
  pKa: 3.2
